{"source": "patent US20260217789A1", "about": "(GLYCOERA, published 2026)", "binders": {"B1": {"name": "biotinylated recombinant human ASGPR1 (Acro Biosystems) (receptor, UniProt P07306 62-291, looked up)", "chain": "QNSQLQEELRGLRETFSNFTASTEAQVKGLSTQGGNVGRKMKSLESQLEKQQKDLSEDHSSLLLHVKQFVSDLRSLSCQMAALQGNGSERTCCPVNWVEHERSCYWFSRSGKAWADADNYCRLEDAHLVVVTSWEEQKFVQHHIGPVNTWMGLHDQNGPWKWVDGTDYETGFKNWRPEQPDDWYGHGLGGGEDCAHFTDDGRWNDDVCQRPYRWVCETELDKASQEPPLL", "modifications": "biotinylated", "notes": "It was immobilized by streptavidin capture"}}, "key": {"[1]": {"target": "T1, PLA2R glycoengineered polypeptide (human, UniProt Q13018 21-505, N-glycans, mainly A2GalNAc2 (83.6% of total N-glycan); six N-glycosylation sites: N93, N315, N433, N454, N473 and one in the C-terminal glycotag; occupancy per Table 2: N93 >99%, N315 <10%, N433 <1%, …)", "T1 construct": "Secreted from glycoengineered Leishmania tarentolae (cell line StCGP6199) and purified by IMAC; also called exemplary PLA2R glycoengineered polypeptide; glycoengineered PLA2R polypeptide", "T1 sequence (Q13018 other isoform, or with tags, fused parts or gaps)": "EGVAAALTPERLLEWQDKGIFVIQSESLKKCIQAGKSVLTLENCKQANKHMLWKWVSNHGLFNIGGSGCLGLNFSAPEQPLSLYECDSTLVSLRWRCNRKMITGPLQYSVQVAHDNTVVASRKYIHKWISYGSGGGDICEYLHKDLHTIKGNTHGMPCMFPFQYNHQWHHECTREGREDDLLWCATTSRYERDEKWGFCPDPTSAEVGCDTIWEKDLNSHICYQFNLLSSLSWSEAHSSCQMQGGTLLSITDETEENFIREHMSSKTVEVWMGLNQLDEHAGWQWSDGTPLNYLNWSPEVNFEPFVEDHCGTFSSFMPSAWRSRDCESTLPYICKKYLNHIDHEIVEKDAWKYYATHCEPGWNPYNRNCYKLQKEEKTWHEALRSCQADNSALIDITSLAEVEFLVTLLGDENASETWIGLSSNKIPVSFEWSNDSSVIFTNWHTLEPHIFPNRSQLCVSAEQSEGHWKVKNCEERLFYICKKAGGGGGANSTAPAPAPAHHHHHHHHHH", "experiment": "SPR, Biacore 8K, steady state KD; biotinylated ASGPR1 on streptavidin, 2 mM CaCl2 (FIG. 1C)", "excerpt": "(§1) Methods: Surface plasmon resonance (SPR) was used to measure binding kinetics (i.e., ka, kd, KD, equilibrium) of a glycoengineered PLA2R polypeptide. SPR data was collected with a Biacore 8K instrument to characterize interactions between the PLA2R glycoengineered polypeptide and surrogate anti-PLA2R antibody 12-6-5 in multiple assay formats. The surrogate antibody was either captured using the Fc tag or covalently immobilized on the sensor surface, and the PLA2R glycoengineered polypeptide construct was injected in increasing concentrations in a single cycle kinetics experiment. The contact time was 300 s and the dissociation time was 1200 s. The data was fit to a 1:1 binding model with the global fitting software provided by Cytivia. For ASGPR1 binding experiments, biotinylated recombinant human ASGPR1 (Acro Biosystems) was immobilized using streptavidin capture, and increasing concentrations of the PLA2R glycoengineered polypeptide were injected in a single cycle kinetics experiment. ASGPR1 assays included 2 mM CaCl₂) in the running buffer. The data were fit using a heterogeneous binding model using the Cytvia provided software."}, "[2]": {"target": "T1, PLA2R glycoengineered polypeptide", "experiment": "SPR, Biacore 8K, single cycle kinetics, heterogeneous binding model; biotinylated ASGPR1 on streptavidin, 2 mM CaCl2 (FIG. 1C)", "excerpt": "as §1"}, "[3]": {"target": "T1, PLA2R glycoengineered polypeptide", "experiment": "SPR (Biacore 8K), single cycle kinetics, immobilized ligand ASGPR1 1ug/mL (biotinylated, streptavidin capture), heterogeneous binding model; column ka1 (first component)", "excerpt": "as §1"}, "[4]": {"target": "T1, PLA2R glycoengineered polypeptide", "experiment": "SPR (Biacore 8K), single cycle kinetics, immobilized ligand ASGPR1 1ug/mL (biotinylated, streptavidin capture), heterogeneous binding model; column KD1 (first component)", "excerpt": "as §1"}, "[5]": {"target": "T1, PLA2R glycoengineered polypeptide", "experiment": "SPR (Biacore 8K), single cycle kinetics, immobilized ligand ASGPR1 1ug/mL (biotinylated, streptavidin capture), heterogeneous binding model; column kd1 (first component)", "excerpt": "as §1"}}}
{"binder": "B1", "values": [{"measurement": "Kd", "setting": "[1]", "value": 1280, "unit": "nM"}, {"measurement": "koff", "setting": "[2]", "value": 0.104, "unit": "s⁻¹"}, {"measurement": "kon", "setting": "[2]", "value": 80900, "unit": "M⁻¹ s⁻¹"}, {"measurement": "kon", "setting": "[3]", "value": 421000, "unit": "M⁻¹ s⁻¹"}, {"measurement": "Kd", "setting": "[4]", "value": 7, "unit": "nM"}, {"measurement": "koff", "setting": "[5]", "value": 0.00294, "unit": "s⁻¹"}]}
